Patent US20090192084A1

Key:
[1] = molecular target: Baculoviral IAP repeat-containing protein 2, IAP2 (human) (UniProt Q13490); assay: Flag co-IP, MudPIT MS, DMSO
[2] = molecular target: CUL3-interacting protein I. KLHL12 (human) (UniProt Q53G59); assay: Flag co-IP, MudPIT MS, DMSO
Cullin 3 (human) = Cullin 3 (human) (UniProt Q13618); assay: Flag co-IP, MudPIT MS, DMSO
[3] = molecular target: DNA damage-binding protein I. DDB1 (human) (UniProt Q16531); assay: Flag co-IP, MudPIT MS, DMSO
EDD1/UBR5 (human) [4] = molecular target: EDD1/UBR5 (human) (UniProt O95071); assay: Flag co-IP, MudPIT MS, DMSO
[5] = molecular target: Kelch-like protein 22. KLEIL22 (human) (UniProt Q53GT1); assay: Flag co-IP, MudPIT MS, DMSO
Praja 2 (human) = Praja 2 (human) (UniProt O43164); assay: Flag co-IP, MudPIT MS, DMSO
[6] = molecular target: Retinoblastoma-associated factor 600, UBR4 (human) (UniProt Q5T4S7); assay: Flag co-IP, MudPIT MS, DMSO
UBR1 (human) = UBR1 (human) (UniProt Q8IWV7); assay: Flag co-IP, MudPIT MS, DMSO
Sequence of UBR1 (human) (Q8IWV7 2-1749 limits assumed): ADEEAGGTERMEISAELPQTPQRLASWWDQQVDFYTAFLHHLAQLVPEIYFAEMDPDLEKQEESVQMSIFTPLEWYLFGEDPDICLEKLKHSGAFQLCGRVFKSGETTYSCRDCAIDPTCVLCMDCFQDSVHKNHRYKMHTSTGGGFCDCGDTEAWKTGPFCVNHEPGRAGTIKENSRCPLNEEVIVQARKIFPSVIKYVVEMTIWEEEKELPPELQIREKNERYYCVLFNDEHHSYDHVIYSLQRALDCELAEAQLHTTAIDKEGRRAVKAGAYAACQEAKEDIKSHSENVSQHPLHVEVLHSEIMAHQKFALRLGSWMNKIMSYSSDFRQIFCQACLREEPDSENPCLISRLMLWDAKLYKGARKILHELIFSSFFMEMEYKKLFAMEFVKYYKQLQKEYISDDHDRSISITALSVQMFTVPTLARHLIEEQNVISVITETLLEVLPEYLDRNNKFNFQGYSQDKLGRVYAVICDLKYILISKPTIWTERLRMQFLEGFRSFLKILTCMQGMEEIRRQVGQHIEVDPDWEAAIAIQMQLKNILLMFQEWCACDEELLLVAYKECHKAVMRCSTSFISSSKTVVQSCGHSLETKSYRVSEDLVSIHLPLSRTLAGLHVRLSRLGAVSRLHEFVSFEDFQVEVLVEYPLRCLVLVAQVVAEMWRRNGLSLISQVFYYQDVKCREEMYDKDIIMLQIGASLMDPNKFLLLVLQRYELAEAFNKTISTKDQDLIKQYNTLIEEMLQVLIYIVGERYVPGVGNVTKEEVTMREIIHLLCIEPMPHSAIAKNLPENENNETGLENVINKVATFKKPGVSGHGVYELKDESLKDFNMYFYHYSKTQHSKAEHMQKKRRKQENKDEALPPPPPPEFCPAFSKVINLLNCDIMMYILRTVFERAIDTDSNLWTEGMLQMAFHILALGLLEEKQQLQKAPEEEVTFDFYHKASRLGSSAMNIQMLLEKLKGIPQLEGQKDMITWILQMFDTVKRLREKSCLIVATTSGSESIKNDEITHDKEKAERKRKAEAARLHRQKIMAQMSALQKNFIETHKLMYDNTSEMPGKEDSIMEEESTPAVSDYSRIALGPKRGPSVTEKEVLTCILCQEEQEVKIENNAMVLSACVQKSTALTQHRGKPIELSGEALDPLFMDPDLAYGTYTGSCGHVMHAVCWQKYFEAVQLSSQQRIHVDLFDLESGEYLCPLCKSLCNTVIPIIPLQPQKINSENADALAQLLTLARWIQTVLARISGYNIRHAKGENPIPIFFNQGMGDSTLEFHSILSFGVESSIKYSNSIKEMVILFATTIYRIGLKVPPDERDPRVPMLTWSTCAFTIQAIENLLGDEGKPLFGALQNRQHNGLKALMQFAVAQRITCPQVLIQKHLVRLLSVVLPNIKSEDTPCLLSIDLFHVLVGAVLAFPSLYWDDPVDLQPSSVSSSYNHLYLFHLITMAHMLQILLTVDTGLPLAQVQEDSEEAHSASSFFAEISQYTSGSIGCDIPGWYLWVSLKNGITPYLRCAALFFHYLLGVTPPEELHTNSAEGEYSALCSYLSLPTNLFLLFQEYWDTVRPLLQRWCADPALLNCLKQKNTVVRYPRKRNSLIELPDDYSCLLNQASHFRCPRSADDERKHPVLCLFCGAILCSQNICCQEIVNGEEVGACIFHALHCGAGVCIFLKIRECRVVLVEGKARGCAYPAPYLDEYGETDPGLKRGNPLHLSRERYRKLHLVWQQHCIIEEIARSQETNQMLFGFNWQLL

UBR2 (human) = UBR2 (human) (UniProt Q8IWV8); assay: Flag co-IP, MudPIT MS, DMSO
gp78 (human) = gp78 (human) (UniProt Q9UKV5); assay: Flag co-IP, MudPIT MS, DMSO
[7] = molecular target: DNA damage-binding protein I. DDB1 (human) (UniProt Q16531); assay: Flag co-IP, MudPIT MS, MG132
EDD1/UBR5 (human) [8] = molecular target: EDD1/UBR5 (human) (UniProt O95071); assay: Flag co-IP, MudPIT MS, MG132
[9] = molecular target: Retinoblastoma-associated factor 600, UBR4 (human) (UniProt Q5T4S7); assay: Flag co-IP, MudPIT MS, MG132
PLAP (human) = PLAP (human) (UniProt Q9Y263); assay: Flag co-IP, 293 cells, MudPIT MS
Sequence of PLAP (human) (Q9Y263 whole entry): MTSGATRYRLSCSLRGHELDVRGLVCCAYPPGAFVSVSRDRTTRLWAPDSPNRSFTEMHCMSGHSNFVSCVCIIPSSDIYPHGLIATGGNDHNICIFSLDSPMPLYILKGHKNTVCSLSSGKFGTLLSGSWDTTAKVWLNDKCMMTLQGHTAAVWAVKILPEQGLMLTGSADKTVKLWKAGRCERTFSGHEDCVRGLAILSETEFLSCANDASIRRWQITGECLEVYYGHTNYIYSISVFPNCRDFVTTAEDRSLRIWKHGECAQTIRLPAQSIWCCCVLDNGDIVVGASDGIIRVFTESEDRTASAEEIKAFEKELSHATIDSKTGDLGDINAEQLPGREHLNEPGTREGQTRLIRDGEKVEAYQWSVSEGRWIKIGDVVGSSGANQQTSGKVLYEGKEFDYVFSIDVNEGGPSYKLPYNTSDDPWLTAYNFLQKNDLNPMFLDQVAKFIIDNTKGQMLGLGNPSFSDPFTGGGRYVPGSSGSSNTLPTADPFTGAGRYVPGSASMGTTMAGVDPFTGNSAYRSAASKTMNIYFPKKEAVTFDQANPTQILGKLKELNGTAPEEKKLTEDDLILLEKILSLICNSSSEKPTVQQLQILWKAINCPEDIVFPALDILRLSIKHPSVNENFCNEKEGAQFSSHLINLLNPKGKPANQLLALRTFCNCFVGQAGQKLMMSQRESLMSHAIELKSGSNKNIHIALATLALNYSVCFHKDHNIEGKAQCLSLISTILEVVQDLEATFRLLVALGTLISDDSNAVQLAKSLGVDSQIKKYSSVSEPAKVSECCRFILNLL

VCIP135 (human) = molecular target: T1, VCIP135 (human) (UniProt Q96JH7); assay: Flag co-IP, 293 cells, MudPIT MS
T1 sequence (looked up): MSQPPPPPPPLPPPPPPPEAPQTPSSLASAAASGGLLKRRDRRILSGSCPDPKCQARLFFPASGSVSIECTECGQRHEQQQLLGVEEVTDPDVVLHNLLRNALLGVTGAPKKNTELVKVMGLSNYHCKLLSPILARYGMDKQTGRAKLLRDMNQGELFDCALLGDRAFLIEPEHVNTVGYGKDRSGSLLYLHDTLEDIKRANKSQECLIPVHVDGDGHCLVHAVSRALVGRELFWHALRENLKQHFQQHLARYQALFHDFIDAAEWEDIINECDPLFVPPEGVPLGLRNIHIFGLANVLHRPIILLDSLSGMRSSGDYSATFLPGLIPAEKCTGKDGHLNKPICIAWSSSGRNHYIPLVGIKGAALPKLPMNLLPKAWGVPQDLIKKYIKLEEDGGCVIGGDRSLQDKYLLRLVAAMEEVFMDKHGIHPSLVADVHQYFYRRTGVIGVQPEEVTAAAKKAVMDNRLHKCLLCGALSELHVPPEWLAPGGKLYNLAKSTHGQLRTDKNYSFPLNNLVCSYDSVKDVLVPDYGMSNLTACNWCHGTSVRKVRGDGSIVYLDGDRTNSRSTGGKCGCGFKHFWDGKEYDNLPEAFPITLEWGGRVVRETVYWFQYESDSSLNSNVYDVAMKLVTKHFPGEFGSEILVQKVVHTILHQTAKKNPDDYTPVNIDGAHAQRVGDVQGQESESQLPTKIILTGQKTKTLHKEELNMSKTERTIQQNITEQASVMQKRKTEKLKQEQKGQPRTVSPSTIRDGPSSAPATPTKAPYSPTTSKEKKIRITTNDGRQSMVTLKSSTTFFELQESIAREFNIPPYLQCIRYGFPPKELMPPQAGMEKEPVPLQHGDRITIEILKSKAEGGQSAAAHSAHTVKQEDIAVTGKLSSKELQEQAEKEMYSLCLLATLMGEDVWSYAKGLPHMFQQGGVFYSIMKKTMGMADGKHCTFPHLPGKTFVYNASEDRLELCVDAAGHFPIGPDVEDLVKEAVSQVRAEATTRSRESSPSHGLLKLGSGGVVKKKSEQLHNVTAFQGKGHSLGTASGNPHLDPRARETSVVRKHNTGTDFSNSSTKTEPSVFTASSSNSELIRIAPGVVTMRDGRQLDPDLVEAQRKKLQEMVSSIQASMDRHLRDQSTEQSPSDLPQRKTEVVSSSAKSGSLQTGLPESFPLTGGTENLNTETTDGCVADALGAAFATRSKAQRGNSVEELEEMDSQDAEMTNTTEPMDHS

[10] = molecular target: CUL4- and DDB I-associated WDR protein 2, WDR26 (human) (UniProt Q9H7D7); assay: Flag co-IP, MudPIT MS, DMSO
endogenous NPL4 (human) = endogenous NPL4 (human) (UniProt Q8TAT6); assay: Flag co-IP, 293 cells, MudPIT MS
Sequence of endogenous NPL4 (human) (Q8TAT6 other isoform, or with tags, fused parts or gaps limits assumed): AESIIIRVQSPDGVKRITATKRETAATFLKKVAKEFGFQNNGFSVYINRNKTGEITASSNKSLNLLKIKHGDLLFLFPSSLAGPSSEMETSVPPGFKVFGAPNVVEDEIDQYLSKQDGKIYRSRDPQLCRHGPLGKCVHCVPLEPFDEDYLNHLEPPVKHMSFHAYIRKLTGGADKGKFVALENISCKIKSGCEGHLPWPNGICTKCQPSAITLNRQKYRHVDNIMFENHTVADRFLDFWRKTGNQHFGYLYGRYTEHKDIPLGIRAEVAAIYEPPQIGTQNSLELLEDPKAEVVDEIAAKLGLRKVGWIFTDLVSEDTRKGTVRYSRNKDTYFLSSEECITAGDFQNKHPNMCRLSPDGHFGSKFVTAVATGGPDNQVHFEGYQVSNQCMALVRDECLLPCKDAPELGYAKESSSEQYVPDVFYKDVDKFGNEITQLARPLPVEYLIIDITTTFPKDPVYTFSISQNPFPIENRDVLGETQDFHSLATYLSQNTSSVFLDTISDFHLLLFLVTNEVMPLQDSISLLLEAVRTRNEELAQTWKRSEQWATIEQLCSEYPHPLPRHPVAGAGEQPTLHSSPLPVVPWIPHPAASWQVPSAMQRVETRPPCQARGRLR

Sequence of DNA damage-binding protein I. DDB1 (human) (Q16531 2-1140 limits assumed): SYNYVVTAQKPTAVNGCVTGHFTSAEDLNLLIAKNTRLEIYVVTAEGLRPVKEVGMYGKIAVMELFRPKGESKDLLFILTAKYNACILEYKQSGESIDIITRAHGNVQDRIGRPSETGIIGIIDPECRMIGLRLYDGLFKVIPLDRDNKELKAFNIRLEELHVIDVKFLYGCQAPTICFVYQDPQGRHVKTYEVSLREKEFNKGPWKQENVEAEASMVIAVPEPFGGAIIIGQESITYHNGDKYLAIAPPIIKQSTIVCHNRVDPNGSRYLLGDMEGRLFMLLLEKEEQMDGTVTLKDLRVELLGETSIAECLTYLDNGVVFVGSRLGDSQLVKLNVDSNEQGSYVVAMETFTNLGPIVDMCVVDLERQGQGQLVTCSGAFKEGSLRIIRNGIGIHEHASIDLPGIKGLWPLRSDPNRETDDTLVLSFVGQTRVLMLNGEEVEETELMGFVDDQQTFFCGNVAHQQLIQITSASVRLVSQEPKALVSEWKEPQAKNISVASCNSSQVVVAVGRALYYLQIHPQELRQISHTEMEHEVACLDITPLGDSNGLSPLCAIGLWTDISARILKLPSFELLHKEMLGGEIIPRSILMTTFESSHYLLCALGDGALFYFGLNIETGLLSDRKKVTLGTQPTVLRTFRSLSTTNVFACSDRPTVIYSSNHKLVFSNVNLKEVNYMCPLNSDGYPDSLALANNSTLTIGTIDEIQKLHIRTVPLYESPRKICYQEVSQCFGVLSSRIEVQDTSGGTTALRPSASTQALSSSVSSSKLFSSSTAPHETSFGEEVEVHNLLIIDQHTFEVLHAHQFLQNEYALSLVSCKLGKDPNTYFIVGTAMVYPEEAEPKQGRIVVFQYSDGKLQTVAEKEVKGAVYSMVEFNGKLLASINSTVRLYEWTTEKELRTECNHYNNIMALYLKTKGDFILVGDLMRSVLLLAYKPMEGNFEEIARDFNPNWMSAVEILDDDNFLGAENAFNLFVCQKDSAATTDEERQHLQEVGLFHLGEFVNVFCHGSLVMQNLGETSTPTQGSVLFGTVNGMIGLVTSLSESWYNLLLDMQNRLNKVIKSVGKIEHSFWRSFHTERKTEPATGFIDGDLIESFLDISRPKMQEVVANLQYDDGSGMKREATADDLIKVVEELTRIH
Sequence of Baculoviral IAP repeat-containing protein 2, IAP2 (human) (Q13490 whole entry): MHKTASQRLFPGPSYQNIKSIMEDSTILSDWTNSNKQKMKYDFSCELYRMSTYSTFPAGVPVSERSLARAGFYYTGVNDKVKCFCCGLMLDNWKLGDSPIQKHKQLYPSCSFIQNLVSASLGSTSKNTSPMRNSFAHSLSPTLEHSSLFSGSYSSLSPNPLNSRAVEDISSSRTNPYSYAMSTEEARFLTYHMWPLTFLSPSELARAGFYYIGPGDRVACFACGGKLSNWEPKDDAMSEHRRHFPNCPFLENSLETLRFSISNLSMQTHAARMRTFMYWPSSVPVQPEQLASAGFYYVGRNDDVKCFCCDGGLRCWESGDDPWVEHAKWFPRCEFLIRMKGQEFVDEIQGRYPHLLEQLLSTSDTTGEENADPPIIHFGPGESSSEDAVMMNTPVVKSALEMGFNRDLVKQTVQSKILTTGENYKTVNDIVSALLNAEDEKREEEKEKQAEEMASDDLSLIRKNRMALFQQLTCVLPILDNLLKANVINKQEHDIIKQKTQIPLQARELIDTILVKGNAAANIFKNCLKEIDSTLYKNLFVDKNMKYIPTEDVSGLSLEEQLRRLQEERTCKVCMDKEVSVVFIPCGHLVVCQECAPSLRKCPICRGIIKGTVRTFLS

Substance Flag-SAKS1 (from UniProt Q04323 1-297) has an abundance factor (AF) [1] of 2.3, a sequence count [1] of 2 and a spectrum count [1] of 2. The abundance factor (AF) [2] was 6.4, the sequence count [2] was 2 and the spectrum count [2] was 5. The abundance factor (AF) (Cullin 3 (human)) was 2.7, the sequence count (Cullin 3 (human)) was 3 and the spectrum count (Cullin 3 (human)) was 3. It also gave an abundance factor (AF) [3] of 1.3, a sequence count [3] of 2 and a spectrum count [3] of 2. For the same substance, the abundance factor (AF) (EDD1/UBR5 (human) [4]) was 2.6, the sequence count (EDD1/UBR5 (human) [4]) was 9 and the spectrum count (EDD1/UBR5 (human) [4]) was 10. For the same substance, the abundance factor (AF) [5] was 2.3, the sequence count [5] was 2 and the spectrum count [5] was 2. For the same substance, the abundance factor (AF) (Praja 2 (human)) was 3.1, the sequence count (Praja 2 (human)) was 3 and the spectrum count (Praja 2 (human)) was 3. For the same substance, the abundance factor (AF) [6] was 3.8, the sequence count [6] was 18 and the spectrum count [6] was 27. For the same substance, the abundance factor (AF) (UBR1 (human)) was 0.8, the sequence count (UBR1 (human)) was 2 and the spectrum count (UBR1 (human)) was 2. The abundance factor (AF) (UBR2 (human)) was 2.8, the sequence count (UBR2 (human)) was 5 and the spectrum count (UBR2 (human)) was 7. The abundance factor (AF) (gp78 (human)) was 3.3, the sequence count (gp78 (human)) was 3 and the spectrum count (gp78 (human)) was 3. For the same substance, the abundance factor (AF) [7] was 0.7, the sequence count [7] was 2 and the spectrum count [7] was 2. The abundance factor (AF) (EDD1/UBR5 (human) [8]) was 2, the sequence count (EDD1/UBR5 (human) [8]) was 9 and the spectrum count (EDD1/UBR5 (human) [8]) was 14. For the same substance, the abundance factor (AF) [9] was 5.7, the sequence count [9] was 30 and the spectrum count [9] was 74. The sequence count (PLAP (human)) was 26, the sequence coverage (PLAP (human)) was 32.1% and the spectrum count (PLAP (human)) was 90. The sequence count (VCIP135 (human)) was 2, the sequence coverage (VCIP135 (human)) was 2.9% and the spectrum count (VCIP135 (human)) was 2.
With Flag-UBXD7 (from UniProt O94888 1-489) the abundance factor (AF) [1] was 6.1, the sequence count [1] was 3 and the spectrum count [1] was 3. The abundance factor (AF) [2] was 18.1, the sequence count [2] was 6 and the spectrum count [2] was 8. It also gave an abundance factor (AF) [10] of 46.4, a sequence count [10] of 12 and a spectrum count [10] of 19. The abundance factor (AF) (Cullin 3 (human)) was 37, the sequence count (Cullin 3 (human)) was 13 and the spectrum count (Cullin 3 (human)) was 23. The abundance factor (AF) [3] was 12.4, the sequence count [3] was 11 and the spectrum count [3] was 11. The abundance factor (AF) [5] was 6, the sequence count [5] was 3 and the spectrum count [5] was 3. It also gave an abundance factor (AF) (Praja 2 (human)) of 5.5, a sequence count (Praja 2 (human)) of 2 and a spectrum count (Praja 2 (human)) of 3. It also gave an abundance factor (AF) [6] of 4.5, a sequence count [6] of 12 and a spectrum count [6] of 18. The abundance factor (AF) (UBR1 (human)) was 1.4, the sequence count (UBR1 (human)) was 2 and the spectrum count (UBR1 (human)) was 2. For the same substance, the abundance factor (AF) (UBR2 (human)) was 2.1, the sequence count (UBR2 (human)) was 2 and the spectrum count (UBR2 (human)) was 3. For the same substance, the abundance factor (AF) (gp78 (human)) was 5.9, the sequence count (gp78 (human)) was 3 and the spectrum count (gp78 (human)) was 3. It also gave an abundance factor (AF) [7] of 2.6, a sequence count [7] of 13 and a spectrum count [7] of 13. For the same substance, the abundance factor (AF) (EDD1/UBR5 (human) [8]) was 0.2, the sequence count (EDD1/UBR5 (human) [8]) was 2 and the spectrum count (EDD1/UBR5 (human) [8]) was 2. It also gave an abundance factor (AF) [9] of 2.1, a sequence count [9] of 41 and a spectrum count [9] of 49. It also gave a sequence count (PLAP (human)) of 2, a sequence coverage (PLAP (human)) of 4% and a spectrum count (PLAP (human)) of 2. It also gave a sequence count (endogenous NPL4 (human)) of 14, a sequence coverage (endogenous NPL4 (human)) of 24.5% and a spectrum count (endogenous NPL4 (human)) of 33.
Substance Flag-UBXD8 (from UniProt Q96CS3 1-445) has an abundance factor (AF) [10] of 1.2, a sequence count [10] of 2 and a spectrum count [10] of 4. The abundance factor (AF) [3] was 0.3, the sequence count [3] was 2 and the spectrum count [3] was 2. It also gave an abundance factor (AF) (EDD1/UBR5 (human) [4]) of 0.2, a sequence count (EDD1/UBR5 (human) [4]) of 3 and a spectrum count (EDD1/UBR5 (human) [4]) of 3. The abundance factor (AF) (Praja 2 (human)) was 0.7, the sequence count (Praja 2 (human)) was 3 and the spectrum count (Praja 2 (human)) was 3. It also gave an abundance factor (AF) [6] of 0.2, a sequence count [6] of 3 and a spectrum count [6] of 5. It also gave an abundance factor (AF) (UBR1 (human)) of 0.3, a sequence count (UBR1 (human)) of 3 and a spectrum count (UBR1 (human)) of 3. For the same substance, the abundance factor (AF) (UBR2 (human)) was 0.4, the sequence count (UBR2 (human)) was 3 and the spectrum count (UBR2 (human)) was 5. It also gave an abundance factor (AF) (gp78 (human)) of 0.5, a sequence count (gp78 (human)) of 2 and a spectrum count (gp78 (human)) of 2. It also gave an abundance factor (AF) [7] of 0.7, a sequence count [7] of 3 and a spectrum count [7] of 4. It also gave an abundance factor (AF) (EDD1/UBR5 (human) [8]) of 0.8, a sequence count (EDD1/UBR5 (human) [8]) of 9 and a spectrum count (EDD1/UBR5 (human) [8]) of 10. For the same substance, the abundance factor (AF) [9] was 0.3, the sequence count [9] was 6 and the spectrum count [9] was 6. For the same substance, the sequence count (PLAP (human)) was 10, the sequence coverage (PLAP (human)) was 20.1% and the spectrum count (PLAP (human)) was 15. For the same substance, the sequence count (VCIP135 (human)) was 11, the sequence coverage (VCIP135 (human)) was 14.1% and the spectrum count (VCIP135 (human)) was 12. It also gave a sequence count (endogenous NPL4 (human)) of 11, a sequence coverage (endogenous NPL4 (human)) of 20.6% and a spectrum count (endogenous NPL4 (human)) of 209.
